Stoichiometry N and fraction of particles that are hexamers (without dNTPs) data for one substance are collected here from article PMC12489045, “Non-coding RNA mediates the defense-associated reverse transcriptase (DRT) anti-phage oligomerization transition” (The EMBO Journal, 2025).

In assay [1] the target is DRT9 reverse transcriptase (DRT9-RT protein), wild type, in complex with its ncRNA (Escherichia coli). Description: cryo-EM structure; DRT9 RT-ncRNA complex (2 mg/ml) with 1 mM of each dNTP, 25 mM Tris-HCl pH 7.5, 150 mM NaCl, 5 mM MgCl2, room temperature 1 h; 3.46 Å.
Assay [2] shares this target. Nature of the assay: cryo-EM structure; DRT9 RT-ncRNA complex without dNTPs, 2 mg/ml; 3.49 Å.

As to “DRT9 reverse transcriptase (DRT9-RT protein), wild type, in complex with its ncRNA (enzyme)”, in assay [1], the stoichiometry N (usually the number of molecules, sites or subunits per partner or assembly) was determined as 6. In assay [2], this substance gave a fraction of particles that are hexamers (without dNTPs) of 13% and a stoichiometry N of 4.
